For this experiment, the target named is human CSF-1R fragment D1-D3 (human, UniProt P07333 20-311). Description: SPR. As for the experimental part: The binding of […] anti-CSF-1R antibodies to human CSF-1R fragment D1-D3 (SEQ ID NO:13) was measured as described in Example 10 of WO2011/070024.

B1: emactuzumab (antibody, V domains shown)
VH: QVQLVQSGAEVKKPGASVKVSCKASGYTFTSYDISWVRQAPGQGLEWMGVIWTDGGTNYAQKLQGRVTMTTDTSTSTAYMELRSLRSDDTAVYYCARDQRLYFDVWGQGTTVTVSS
VL: DIQMTQSPSSLSASVGDRVTITCRASEDVNTYVSWYQQKPGKAPKLLIYAASNRYTGVPSRFSGSGSGTDFTLTISSLQPEDFATYYCQQSFSYPTFGQGTKLEIK
notes: also called anti-CSF-1R antibody emactuzumab; <CSF-1R> MAb
Take B1: the binding result is “no binding”.

These data come from patent US20190309078A1 (Hoffmann-La Roche, published 2019).
